According to patent US7799901B2, “Modulators of the function of FAS receptors and other proteins” (Yeda Research and Development Co. Ltd., priority 1995, dated 2010):

T1: GST-MORT-1 fusion protein (Homo sapiens, UniProt Q13158)
T1 construct: made in house
T1 sequence (Q13158 1-208): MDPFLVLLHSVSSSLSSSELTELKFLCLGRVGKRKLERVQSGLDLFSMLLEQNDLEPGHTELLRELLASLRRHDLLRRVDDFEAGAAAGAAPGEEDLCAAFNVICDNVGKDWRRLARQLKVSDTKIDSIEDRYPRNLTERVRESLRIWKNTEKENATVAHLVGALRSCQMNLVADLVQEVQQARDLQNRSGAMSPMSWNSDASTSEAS

T2: MORT-1 (Homo sapiens, UniProt Q13158, G32V)
T2 sequence (Q13158 with tags, fused parts or gaps G32V): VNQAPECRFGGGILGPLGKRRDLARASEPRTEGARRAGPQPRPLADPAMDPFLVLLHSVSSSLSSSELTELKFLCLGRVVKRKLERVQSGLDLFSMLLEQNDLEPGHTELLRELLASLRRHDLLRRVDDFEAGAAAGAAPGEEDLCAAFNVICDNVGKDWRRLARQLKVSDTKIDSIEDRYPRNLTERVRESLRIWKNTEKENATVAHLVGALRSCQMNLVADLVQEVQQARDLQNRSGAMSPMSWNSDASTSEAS

T3: FAS-IC (Homo sapiens, UniProt P25445)
T3 construct: the FAS-IC extends-from amino acid residues 175-319 of the intact FAS-R; expressed in transfected cells; host or cells: SFY526 yeast
T3 sequence (P25445 191-335): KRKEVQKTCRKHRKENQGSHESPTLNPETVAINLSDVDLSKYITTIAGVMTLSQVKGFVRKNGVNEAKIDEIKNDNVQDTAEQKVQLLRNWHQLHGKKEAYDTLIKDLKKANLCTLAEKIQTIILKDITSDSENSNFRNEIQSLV

T4: FAS-IC with replacement mutations at position 225 (Ile) (Mus musculus, UniProt P25446, I246A)
T4 construct: four constructs of the mouse Fas-IC including two full-length constructs; expressed in transfected cells; host or cells: SFY526 yeast
T4 sequence (P25446 187-327 I246A): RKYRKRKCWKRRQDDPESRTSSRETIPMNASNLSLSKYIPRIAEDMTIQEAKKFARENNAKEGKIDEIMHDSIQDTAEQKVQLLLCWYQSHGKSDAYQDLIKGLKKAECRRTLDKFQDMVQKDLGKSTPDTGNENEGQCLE

B1: MACHβ1: MACH isoform, cDNA SEQ ID NO: 4, amino acid SEQ ID NO: 5; lacks the CED3/ICE homology region (protein)
chain: MDFSRNLYDIGEQLDSEDLASLKFLSLDYIPQRKQEPIKDALMLFQRLQEKRMLEESNLSFLKELLFRINRLDLLITYLNTRKEEMERELQTPGRAQISAYRVMLYQISEEVSRSELRSFKFLLQEEISKCKLDDDMNLLDIFIEMEKRVILGEGKLDILKRVCAQINKSLLKIINDYEEFSKERSSSLEGSPDEFSNDFGQSLPNEKQTSGILSDHQQSQFCKSTGESAQTSQH
B2: MORT-1: Mediator of Receptor-induced Toxicity; protein binding the intracellular domain of FAS-R, SEQ ID NO:2 (protein)
chain: T2 sequence (Q13158 with tags, fused parts or gaps G32V)

Columns and labels:
[1] = target: T1, GST-MORT-1 fusion protein; experiment: In vitro binding to GST-MORT-1 on glutathione-agarose beads
Source text: It has been shown also to contribute to, though not to suffice in, the self association of MORT-1 (see Example 1). […] To further assess the involvement of the MORT modules in these interactions, deletion mutants of MACHβ1, fused with the FLAG octapeptide (FLAG-MACHβ1), were expressed in HeLa cells and assessed for their binding in vitro to bacterial-produced […] fusion protein (GST-MORT-1). […] FIGS. 9A and 9B show the results (autoradiograms) of the in vitro interaction of MACHβ1 and its deletion mutants with MORT-1. Briefly, 35 [S] metabolically labeled MACHβ1, MACHβ1 fused at its N-terminus to the FLAG octapeptide (FLAG-MACHβ1), C-terminus truncation mutants of FLAG-MACHβ1, and, as a control, luciferase, were produced in transfected HeLa cells. Expression was done using a tetracycline-controlled expression vector, in a HeLa cell clone (HtTA-1) that expresses a tetracycline-controlled transactivator.
The antibodies used are as follows: Rabbit anti-MACHβ1 and anti-MORT1 antisera were raised against GST-MACHβ1 and GST-MORT1 fusion proteins. Mouse monoclonal antibodies against the FLAG octapeptide (M2) and against FAS/APO1 (CH11, Yonehara et al, 1989) were purchased from Eastman Kodak and Oncor (Gaithersburg, Md.) respectively. […]

MORT-1 = target: T2, MORT-1; experiment: Two-hybrid test (FIG. 1), binding to full-length MORT-1; set-up: expressed in transfected cells; host or cells: SFY526 yeast
Source text: (§1) To isolate proteins interacting with the intracellular domain of the FAS-R, the yeast two-hybrid system was used (Fields and Song, 1989). […] In this system, the genes for the candidate interacting proteins are cloned into separate expression vectors. In one expression vector, the sequence of the one candidate protein is cloned in phase with the sequence of the GAL4 DNA-binding domain to generate a hybrid protein with the GAL4 DNA-binding-domain, and in the other vector, the sequence of the second candidate protein is cloned in phase with the sequence of the GAL4 activation domain to generate a hybrid protein with the GAL4-activation domain. The two hybrid vectors are then co-transformed into a yeast host strain having a lacZ or HIS3 reporter gene under the control of upstream GAL4 binding sites. Only those transformed host cells (cotransformants) in which the two hybrid proteins are expressed and are capable of interacting with each other, will be capable of expressing the reporter gene. In the case of the lacZ reporter gene, host cells expressing this gene will become blue in color when X-gal is added to the cultures.
(b) retransforming the plasmid DNA and original FAS-IC hybrid plasmid and control plasmids described in (a) into yeast host cells of strain SFY526 and determining the LACZ^+ activity (effectivity of β-gal formation, i.e., blue color formation).
In FIG. 1, there is depicted the interaction of the proteins encoded by the Gal4 DNA binding domain and activation-domain constructs (pGBT9 and pGAD-GH) within transfected SFY526 yeasts as assessed by β-galactosidase expression filter assay. The DNA-binding-domain constructs included four constructs of the human Fas-IC, four constructs of the mouse Fas-IC including two full-length constructs having […] or Ile to Ala replacement mutations at position 225 (I225N and I225A, respectively), and three MORT-1 constructs, all of which are shown schematically on the left hand side of FIG. 1. […]

FAS-IC = target: T3, FAS-IC; experiment: Two-hybrid test of MORT-1 binding (FIG. 1), human Fas-IC; details: transfected SFY526 yeasts
Source text: as §1, with “cultures. […]” for “cultures.”
(§2) In FIG. 1, there is depicted the interaction of the proteins encoded by the Gal4 DNA binding domain and activation-domain constructs (pGBT9 and pGAD-GH) within transfected SFY526 yeasts as assessed by β-galactosidase expression filter assay. […]

[2] = target: T4, FAS-IC with replacement mutations at position 225 (Ile); experiment: Two-hybrid test of MORT-1 binding (FIG. 1), FAS-IC mutated at position 225; details: lpr^eg mutation site
Source text: as §1, with “cultures. […]” for “cultures.”
as §2

Molecule | in vitro binding to GST-MORT-1 fusion protein [1] | binding to full-length MORT-1 in two-hybrid test (MORT-1) | binding to human Fas-IC in two-hybrid test (FAS-IC) | binding to FAS-IC with replacement mutation at position 225 [2]
B1 | able to bind | – | – | –
B2 | – | binds to itself | binds | prevents binding
